In patent US20250026797A1 (GOVERNMENT OF THE UNITED STATES OF AMERICA AS REPRESENTED …, published 2025):
Residue numbers refer to the chain shown, from its start. Names may count otherwise. No end group written: not given here. *: point of attachment. Biotin = O=C1N[C@H]2[C@H](CS[C@H]2CCCCC(=O)*)N1

T1: NH2-PGLVKSK(biotin)-COOH peptide (SMILES CC(C)C[C@H](NC(=O)CNC(=O)[C@@H]1CCCN1)C(=O)N[C@H](C(=O)N[C@@H](CCCCN)C(=O)N[C@@H](CO)C(=O)N[C@@H](CCCCNC(=O)CCCC[C@@H]1SC[C@@H]2NC(=O)N[C@@H]21)C(=O)O)C(C)C)
T1 construct: Immobilised on streptavidin biosensors in BLI; in solution in the yeast display sorts; also called Nt-Pro peptide; target peptide
T1 peptide: H-PGLVKSK(Biotin)-OH

T2: VGLVKSK(biotin) peptide (XGLVKSK(biotin), X = Val)
T2 construct: also called Nt-Val peptide
T2 peptide: VGLVKSK(Biotin)

T3: FGLVKSK(biotin) peptide (XGLVKSK(biotin), X = Phe)
T3 construct: also called Nt-Phe peptide
T3 peptide: FGLVKSK(Biotin)

T4: MGLVKSK(biotin) peptide (XGLVKSK(biotin), X = Met)
T4 construct: also called Nt-Met peptide
T4 peptide: MGLVKSK(Biotin)

T5: PGRVKSK(biotin) peptide (PGXVKSK(biotin), X = Arg)
T5 construct: also called Arg at P3
T5 peptide: PGRVKSK(Biotin)

T6: PGVVKSK(biotin) peptide (PGXVKSK(biotin), X = Val)
T6 construct: also called Val at P3
T6 peptide: PGVVKSK(Biotin)

T7: PVLVKSK(biotin) peptide (PXLVKSK(biotin), X = Val)
T7 construct: also called Val at P2
T7 peptide: PVLVKSK(Biotin)

T8: PGMVKSK(biotin) peptide (PGXVKSK(biotin), X = Met)
T8 construct: also called Met at P3
T8 peptide: PGMVKSK(Biotin)

T9: PGSVKSK(biotin) peptide (PGXVKSK(biotin), X = Ser)
T9 construct: also called Ser at P3
T9 peptide: PGSVKSK(Biotin)

T10: PGFVKSK(biotin) peptide (PGXVKSK(biotin), X = Phe)
T10 construct: also called Phe at P3
T10 peptide: PGFVKSK(Biotin)

T11: PSLVKSK(biotin) peptide (PXLVKSK(biotin), X = Ser)
T11 construct: also called Ser at P2
T11 peptide: PSLVKSK(Biotin)

B1: GID4 A252V variant (residues 116-300), purified with N-terminal His-tag (designed binder)
chain: GVATSLLYSGSKFRGHQKSKGNSYDVEVVLQHVDTGNSYLCGYLKIKGLTEEYPTLTTFFEGEIISKKHPFLTRKWDADEDVDRKHWGKFLAFYQYAKSFNSDDFDYEELKNGDYVFMRWKEQFLVPDHTIKDISGVSFAGFYYICFQKSAASIEGYYYHRSSEWYQSLNLTHVPEHSAPIYEFR
notes: not shown: N-terminal six-histidine tag and TEV protease recognition site from the pET21(+) construct
B2: GID4 A252V-S283F double mutant variant (residues 116-300), purified with N-terminal His-tag (designed binder)
chain: B1 chain with S168F
notes: also called A252V-S283F mutant; not shown: N-terminal six-histidine tag and TEV protease recognition site from the pET21(+) construct
B3: GID4 A252V-S253T-S283F triple mutant variant (residues 116-300), purified with N-terminal His-tag (designed binder)
chain: B1 chain with S138T, S168F
notes: as for B1
B4: GID4 A252V-S253T double mutant variant (residues 116-300), purified with N-terminal His-tag (designed binder)
chain: B1 chain with S138T
notes: also called A252V-S253T mutant; not shown: N-terminal six-histidine tag and TEV protease recognition site from the pET21(+) construct
B5: GID4 S283F variant (residues 116-300), purified with N-terminal His-tag (designed binder)
chain: B1 chain with V137A, S168F
notes: as for B1
B6: GID4 S253T variant (residues 116-300), purified with N-terminal His-tag (designed binder)
chain: B1 chain with V137A, S138T
notes: as for B1
B7: wild-type human GID4 fragment (residues 116-300), purified with N-terminal His-tag (other)
chain: B1 chain with V137A
notes: Expressed in E. coli BL21(DE3), nickel-column purified; also called wild-type GID4; native GID4; not shown: N-terminal six-histidine tag and TEV protease recognition site from the pET21(+) construct

Molecular target: T1, NH2-PGLVKSK(biotin)-COOH peptide
Assay: BLI, biotinylated peptide on streptavidin biosensor, 10 µmol/L protein
Protocol: (§1) High-throughput kinetic measurements were taken using Octet Red96e system with Octet Streptavidin (SA) Biosensors in 96-well format. The highest concentration of protein was prepared by mixing 25% of the total volume with 0.4% BSA in dialysis buffer (1×PBS) and completing subsequent dilutions with 0.1% BSA in dialysis buffer. The SA biosensors were hydrated for 10 min in the dialysis buffer with 0.1% BSA then loaded with NH₂-XXXVKSK(biotin)-COOH (where X are residues specified in the experiment and figures) by moving the sensors into wells with 10 μmol/L of the biotinylated peptide and incubating for 2 min. Unbound peptide was removed by incubating in the dialysis buffer with 0.1% BSA for 2 min in the next wells. The association of GID4 wild-type and variants were then measured by incubating the biosensors in wells with the proteins for 10 min and then dissociation measured by moving the sensors into new wells with dialysis buffer with 0.1% BSA for another 10 min. All wells contained 200 μL of specified solution. The measurements were analyzed with instrument software Data Analysis HT (Version 12).
(§2) The association and dissociation of the GID4 wild-type and the six variants to the PGLVKSK(biotin) peptide were evaluated using BLI. BLI is an optical technique that can measure interaction between protein in solution ad peptide immobilized on the biosensor tip. […] The S283F variant has an apparent faster dissociation rate compared to the other singe mutation variants. The apparent faster dissociation rate due to S283F mutation is also present in A252V-S283F mutant, when compared to the A252V-S253T mutant. […] The increase in the BLI response and shift in dissociation rate can be beneficial as an Nt-Pro recognizing protein; differences in off-rate can be used as method to distinguish different Nt-amino acids.

fold steady-state BLI response against wild-type GID4	binding result	Binder
1.7 fold	–	B1
–	binds	B2
> 2.3 fold	–	B3
–	binds	B4
–	binds	B5
–	binds	B6

Molecular target: T2, VGLVKSK(biotin) peptide …
Assay: as above
Protocol: as §1, §2

binding result	Binder
binds	B1
binds	B2
binds	B3
binds	B4
binds	B5
binds	B6

Molecular target: T3, FGLVKSK(biotin) peptide …
Assay: as above
Protocol: as §1, §2

binding result	Binder
binds	B1
binds	B2
binds	B3
binds	B4
binds	B5
binds	B6

Molecular target: T4, MGLVKSK(biotin) peptide …
Assay: as above
Protocol: as §1, §2

binding result	Binder
binds	B1
binds	B2
binds	B3
binds	B4
binds	B5
binds	B6

Molecular target: T5, PGRVKSK(biotin) peptide …
Assay: BLI, biotinylated peptide on streptavidin biosensor
Protocol: (§3) The measurements were analyzed with instrument software Data Analysis HT (Version 12).
(§4) Previous works on GID4, as well as other N-degron proteins reported significant impact of the second position of the peptide (P2) on binding affinity. The impact of the P2 on the top variants were evaluated with BLI assay using PGLVKSK(biotin) and PXLVKSK(biotin) peptides, where X is Arg, Asp, Val, Phe, Ser, Met, or Pro. […] S283F variant and, especially, A252V variant retain higher level of BLI response compared to wild-type when Val or Ser is at P2. S283F variant retains 40% of signal with Ser at P2 and A252V variant retains >65% with Val and Ser. This retention of binding response with Val and Ser at P2, relative to Gly at P2, is maintained with the triple mutant the double mutants, with over 58% of signal retained for these variants when Ser is at P2. The A252V-S283F mutant and the triple mutant retained >55% of signal when Val is at P2.
(§5) Due to the depth of the binding pocket of GID4, the binding is impacted by the identity of residues in the target peptide beyond P2. […] Similar to evaluating the impact of P2, the impact of P3 was evaluated via BLI with PGLVKSK(biotin) peptide and PGXVKSK(biotin) peptides, where X is Arg, Asp, Val, Phe, Ser, Met, or Pro. […] Asp and Pro are particularly not favorable at P3, as almost no BLI signal was measured. The BLI response of variants with the rest of the peptides, however, increased.

% of steady-state BLI response relative to PGLVKSK(biotin)	binding result	Binder
> 60%	–	B1
> 69%	–	B2
> 69%	–	B3
> 69%	–	B4
–	binds	B5
–	binds	B6

Molecular target: T6, PGVVKSK(biotin) peptide …
Assay: as above
Protocol: as §3, §4, §5

% of steady-state BLI response relative to PGLVKSK(biotin)	binding result	Binder
> 50%	–	B7
> 60%	–	B1
> 69%	–	B2
> 69%	–	B3
> 69%	–	B4
–	binds	B5
–	binds	B6

Molecular target: T7, PVLVKSK(biotin) peptide …
Assay: as above
Protocol: as §3, §4, §5

% of steady-state BLI signal retained relative to PGLVKSK(biotin)	binding result	Binder
> 65%	–	B1
> 55%	–	B2
> 55%	–	B3
–	binds	B4
–	binds	B5

Molecular target: T8, PGMVKSK(biotin) peptide …
Assay: as above
Protocol: as §3, §4, §5

% of steady-state BLI response relative to PGLVKSK(biotin)	binding result	Binder
> 60%	–	B1
> 69%	–	B2
> 69%	–	B3
> 69%	–	B4
–	binds	B5
–	binds	B6

Molecular target: T9, PGSVKSK(biotin) peptide …
Assay: as above
Protocol: as §3, §4, §5

% of binding response relative to PGLVKSK(biotin)	% of steady-state BLI response relative to PGLVKSK(biotin)	Binder
< 31%	–	B1
–	> 51%	B2
–	> 51%	B3
–	> 51%	B4
< 31%	–	B5
< 31%	–	B6

Molecular target: T10, PGFVKSK(biotin) peptide …
Assay: as above
Protocol: as §3, §4, §5

% of steady-state BLI response relative to PGLVKSK(biotin)	binding result	Binder
> 60%	–	B1
> 69%	–	B2
> 69%	–	B3
> 69%	–	B4
–	binds	B5
–	binds	B6

Molecular target: T11, PSLVKSK(biotin) peptide …
Assay: as above
Protocol: as §3, §4, §5

% of steady-state BLI signal retained relative to PGLVKSK(biotin)	Binder
> 65%	B1
> 58%	B2
> 58%	B3
> 58%	B4
40%	B5
